T1: FLAG/His6-p33 (Tomato bushy stunt virus, UniProt P15962 1-296)
T1 construct: p33 replication protein of Tomato bushy stunt virus (TBSV); also called FLAG-p33; FLAG-tagged p33; source: yeast, co-expressed, detergent-solubilized membrane fraction; not shown: FLAG, N-terminal, kept; His6, N-terminal, kept
T1 sequence: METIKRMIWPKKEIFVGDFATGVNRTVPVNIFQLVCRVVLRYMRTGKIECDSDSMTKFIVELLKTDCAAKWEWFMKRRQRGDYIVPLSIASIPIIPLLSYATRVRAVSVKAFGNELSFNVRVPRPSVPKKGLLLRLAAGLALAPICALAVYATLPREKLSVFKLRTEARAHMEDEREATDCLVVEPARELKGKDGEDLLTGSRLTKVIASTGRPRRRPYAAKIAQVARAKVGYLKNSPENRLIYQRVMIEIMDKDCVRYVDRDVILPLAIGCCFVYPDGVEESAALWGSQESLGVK

B1: Rpn11 deubiquitinase (enzyme, yeast (S. cerevisiae), UniProt P43588 1-306, looked up)
chain: MERLQRLMMNSKVGSADTGRDDTKETVYISSIALLKMLKHGRAGVPMEVMGLMLGEFVDDYTVNVVDVFAMPQSGTGVSVEAVDDVFQAKMMDMLKQTGRDQMVVGWYHSHPGFGCWLSSVDVNTQKSFEQLNSRAVAVVVDPIQSVKGKVVIDAFRLIDTGALINNLEPRQTTSNTGLLNKANIQALIHGLNRHYYSLNIDYHKTAKETKMLMNLHKEQWQSGLKMYDYEEKEESNLAATKSMVKIAEQYSKRIEEEKELTEEELKTRYVGRQDPKKHLSETADETLENNIVSVLTAGVNSVAIK
notes: Rpn11 deubiquitinase, co-opted cellular host factor in yeast; source: yeast, detergent-solubilized membrane fraction
B2: eIF4AIII-like RH2 DEAD-box helicase (enzyme, UniProt Q94A52 1-408, looked up)
chain: MATANPGRGGGRRGGGAMDDDKLVFETTDGIEPITSFNDMGIKEDVLRGVYEYGFEKPSAIQQRAVMPILQGRDVIAQAQSGTGKTSMIALSVCQVVDTSSREVQALILSPTRELATQTEKTIQAIGLHANIQAHACIGGNSVGEDIRKLEHGVHVVSGTPGRVCDMIKRRSLRTRAIKLLILDESDEMLSRGFKDQIYDVYRYLPPDLQVCLVSATLPHEILEMTSKFMTEPVKILVKRDELTLEGIKQFFVAVEKEEWKFDTLCDLYDTLTITQAVIFCNTKRKVDYLSEKMRSHNFTVSSMHGDMPQKERDAIMNEFRSGDSRVLITTDVWARGIDVQQVSLVINYDLPNNRELYIHRIGRSGRFGRKGVAINFVKSDDIKILRDIEQYYSTQIDEMPMNVADLI
notes: eIF4AIII-like RH2 DEAD-box helicase; source: yeast, detergent-solubilized membrane fraction
B3: Cdc34 E2 enzyme (enzyme, yeast (S. cerevisiae), UniProt P14682 1-295, looked up)
chain: MSSRKSTASSLLLRQYRELTDPKKAIPSFHIELEDDSNIFTWNIGVMVLNEDSIYHGGFFKAQMRFPEDFPFSPPQFRFTPAIYHPNVYRDGRLCISILHQSGDPMTDEPDAETWSPVQTVESVLISIVSLLEDPNINSPANVDAAVDYRKNPEQYKQRVKMEVERSKQDIPKGFIMPTSESAYISQSKLDEPESNKDMADNFWYDSDLDDDENGSVILQDDDYDDGNNHIPFEDDDVYNYNDNDDDDERIEFEDDDDDDDDSIDNDSVMDRKQPHKAEDESEDVEDVERVSKKI
notes: Cdc34 ubiquitin-conjugating enzyme of yeast; also called Cdc34 ubiquitin-conjugating enzyme; source: yeast, detergent-solubilized membrane fraction
B4: Pex19p shuttle protein (natural protein, yeast (S. cerevisiae), UniProt Q07418 1-342, looked up)
chain: MNENEYDNFDDLDDLLDEDPTKLDEAEPDDVQAKGSVYNDSENKEKNAESKDSDGVQVANESEEDPELKEMMVDLQNEFANLMKNNGNENNVKTEDFNKLISALEEAAKVPHQQMEQGCSSLKSNSTDKGTVNGSNPGFKNIVSNTLDRLKENGNKVDTSLAEETKESQRSGQNNNIDDILSQLLDQMVASGGKESAENQFDLKDGEMDDAITKILDQMTSKEVLYEPMKEMRSEFGVWFQENGENEEHKEKIGTYKRQFNIVDEIVNIYELKDYDELKHKDRVTELLDELEQLGDSPIRSANSPLKHGNEEEELMKMLEIDGNDPNLGNLDKELTDGCKQQ
notes: Pex19p peroxisome membrane-biogenesis protein of yeast; source: yeast, detergent-solubilized membrane fraction
B5: Pbp2 RNA binding protein (natural protein, UniProt P38151 1-413, looked up)
chain: MSTETTKPSITTTPTTVLVSPNTLKRKKGEDTSEEQLEAEIKRVALKDADSHSDNDHDSPDNVPSDVHLRMLCLVKHASLIVGHKGATISRIKSETSARINISNNIRGVPERIVYVRGTCDDVAKAYGMIVRALLEEHGNEDNGEDIEISINLLIPHHLMGCIIGKRGSRLREIEDLSAAKLFASPNQLLLSNDRILTINGVPDAIHIATFYISQTLLNFQMESPQKNVKRSIYYQPTQFNSVLIDHSQPNTIFHQRNHQYHPSDKLLSYKPNKNLPISSTLLSMATPQYTTASVANATAFQPNFVIPNVTVLDGPVISPAPGNHLLMNFVQQEIFIDEKFVGNVIGKDGKHINSVKESTGCSIIIQDPVEGSSERRLTIRGTFMASQAAIMLISNKIEIDRSNAERKRRSPL
notes: source: yeast, detergent-solubilized membrane fraction
B6: Tdh2p (GAPDH) (enzyme, yeast (S. cerevisiae), UniProt P00358 1-332, looked up)
chain: MVRVAINGFGRIGRLVMRIALQRKNVEVVALNDPFISNDYSAYMFKYDSTHGRYAGEVSHDDKHIIVDGHKIATFQERDPANLPWASLNIDIAIDSTGVFKELDTAQKHIDAGAKKVVITAPSSTAPMFVMGVNEEKYTSDLKIVSNASCTTNCLAPLAKVINDAFGIEEGLMTTVHSMTATQKTVDGPSHKDWRGGRTASGNIIPSSTGAAKAVGKVLPELQGKLTGMAFRVPTVDVSVVDLTVKLNKETTYDEIKKVVKAAAEGKLKGVLGYTEDAVVSSDFLGDSNSSIFDAAAGIQLSPKFVKLVSWYDNEYGYSTRVVDLVEHVAKA
notes: Tdh2p glyceraldehyde-3-phosphate dehydrogenase of yeast; also called Tdh2 GAPDH; source: yeast, detergent-solubilized membrane fraction
B7: Tef1 eEF1A translation elongation factor (natural protein, yeast (S. cerevisiae), UniProt P02994 1-458, looked up)
chain: MGKEKSHINVVVIGHVDSGKSTTTGHLIYKCGGIDKRTIEKFEKEAAELGKGSFKYAWVLDKLKAERERGITIDIALWKFETPKYQVTVIDAPGHRDFIKNMITGTSQADCAILIIAGGVGEFEAGISKDGQTREHALLAFTLGVRQLIVAVNKMDSVKWDESRFQEIVKETSNFIKKVGYNPKTVPFVPISGWNGDNMIEATTNAPWYKGWEKETKAGVVKGKTLLEAIDAIEQPSRPTDKPLRLPLQDVYKIGGIGTVPVGRVETGVIKPGMVVTFAPAGVTTEVKSVEMHHEQLEQGVPGDNVGFNVKNVSVKEIRRGNVCGDAKNDPPKGCASFNATVIVLNHPGQISAGYSPVLDCHTAHIACRFDELLEKNDRRSGKKLEDHPKFLKSGDAALVKFVPSKPMCVEAFSEYPPLGRFAVRDMRQTVAVGVIKSVDKTEKAAKVTKAAQKAAKK
notes: Tef1 eEF1A translation elongation factor of yeast; source: yeast, detergent-solubilized membrane fraction
B8: Vps4p AAA+ ATPase (enzyme, yeast (S. cerevisiae), UniProt P52917 1-437, looked up)
chain: MSTGDFLTKGIELVQKAIDLDTATQYEEAYTAYYNGLDYLMLALKYEKNPKSKDLIRAKFTEYLNRAEQLKKHLESEEANAAKKSPSAGSGSNGGNKKISQEEGEDNGGEDNKKLRGALSSAILSEKPNVKWEDVAGLEGAKEALKEAVILPVKFPHLFKGNRKPTSGILLYGPPGTGKSYLAKAVATEANSTFFSVSSSDLVSKWMGESEKLVKQLFAMARENKPSIIFIDEVDALTGTRGEGESEASRRIKTELLVQMNGVGNDSQGVLVLGATNIPWQLDSAIRRRFERRIYIPLPDLAARTTMFEINVGDTPCVLTKEDYRTLGAMTEGYSGSDIAVVVKDALMQPIRKIQSATHFKDVSTEDDETRKLTPCSPGDDGAIEMSWTDIEADELKEPDLTIKDFLKAIKSTRPTVNEDDLLKQEQFTRDFGQEGN
notes: Vps4p AAA+ ATPase (an ESCRT protein) of yeast; also called Vps4 AAA ATPase; source: yeast, detergent-solubilized membrane fraction
B9: His6-VAP27-1 (natural protein, UniProt Q8VZ95 1-256, looked up)
chain: MSNIDLIGMSNRDLIGMSNSELLTVEPLDLQFPFELKKQISCSLYLTNKTDNNVAFKVKTTNPKKYCVRPNTGVVLPRSTCEVLVTMQAQKEAPSDMQCKDKFLLQGVIASPGVTAKEVTPEMFSKEAGHRVEETKLRVTYVAPPRPPSPVHEGSEEGSSPRASVSDNGHGSEFSFERFIVDNKAGHQENTSEARALITKLTEEKQSAIQLNNRLQRELDQLRRESKKSQSGGIPFMYVLLVGLIGLILGYIMKRT
notes: VAP27-1, plant ortholog of the yeast Scs2 VAP protein; also called 6xHis-tagged VAP27-1 (Scs2 ortholog); Vap27-1 (Scs2-like); source: yeast, co-expressed, detergent-solubilized membrane fraction; not shown: His6, N-terminal, kept
B10: His6-Osh6p (natural protein, yeast (S. cerevisiae), UniProt Q02201 1-448, looked up)
chain: MGSKKLTVGSDSHRLSKSSFSSNKSSHSATKDQPIDTDDIDEDDESGHNIILNIISQLRPGCDLTRITLPTFILEKKSMLERVTNQLQFPEFLLQAHSEKDPLKRFLYVMKWYLAGWHIAPKAVKKPLNPVLGEYFTAYWDLPNKQQAYYISEQTSHHPPECAYFYMIPESSIRVDGVVIPKSRFLGNSSAAMMDGSTVLQFLDIKDGNGKPEKYVLTQPNVYVRGILFGKMRIELGDHMIIKSPNFQADIEFKTKGYVFGTYDAIEGTVKDYDGNAYYEISGKWNDVMYLKDLKQPRSSPKVFLDTHKESPLRPKVRPLSEQGEYESRKLWKKVTDALAVRNHPVATEEKFQIEDHQRQLAKKRIEDGVEFHPKLFRRSKPGEDLDYCIYKNIPVDEDPEKQIRSILQIAPILPGQQFTDKFFIPAFEKIKSQKKMIENEKQNPAKQ
notes: also called 6xHis-tagged Osh6; Osh6 ORP (OSBP1-like); source: yeast, co-expressed, detergent-solubilized membrane fraction; not shown: His6, N-terminal, kept
B11: Vps23p ESCRT factor (natural protein, yeast (S. cerevisiae), UniProt P25604 1-385, looked up)
chain: MSANGKISVPEAVVNWLFKVIQPIYNDGRTTFHDSLALLDNFHSLRPRTRVFTHSDGTPQLLLSIYGTISTGEDGSSPHSIPVIMWVPSMYPVKPPFISINLENFDMNTISSSLPIQEYIDSNGWIALPILHCWDPAAMNLIMVVQELMSLLHEPPQDQAPSLPPKPNTQLQQEQNTPPLPPKPKSPHLKPPLPPPPPPQPASNALDLMDMDNTDISPTNHHEMLQNLQTVVNELYREDVDYVADKILTRQTVMQESIARFHEIIAIDKNHLRAVEQAIEQTMHSLNAQIDVLTANRAKVQQFSSTSHVDDEDVNSIAVAKTDGLNQLYNLVAQDYALTDTIECLSRMLHRGTIPLDTFVKQGRELARQQFLVRWHIQRITSPLS
notes: Vps23p ESCRT-I factor of yeast; also called Vps23 ESCRT I; source: yeast, detergent-solubilized membrane fraction

Columns and labels:
Settings in all cases: partners not purified
[1] = target: T1, FLAG/His6-p33; test: co-IP; FLAG-p33 purified from detergent-solubilized membrane fractions of wt yeast and of yeast co-expressing Ufe1ΔTM; co-purified cellular proteins measured by Western blotting; amount from WT yeast taken as 100%
[2] = target: T1, FLAG/His6-p33; test: co-IP; viral replicase purified by FLAG affinity from detergent-solubilized membrane fractions of yeasts expressing FLAG-p33, FLAG-p92 and the repRNA; WT yeast or yeast depleted of Ufe1p (GALS::UFE1) or Use1p (GAL1::USE1) on glucose; Western blot with anti-6xHis
[3] = target: T1, FLAG/His6-p33; test: co-IP; FLAG-p33 purified from detergent-solubilized membrane fractions of wt yeast and of yeast co-expressing Ufe1ΔTM; co-purified cellular proteins measured by Western blotting; amount from WT yeast taken as 100%; remark: listed apart in the source

Binder	percentage of host protein co-purified with p33 from yeast expressing Ufe1ΔTM (WT yeast = 100%) [1] [%]	fold reduction of the co-purified amount in Ufe1p- or Use1p-depleted yeast against WT yeast [2] [fold]	fold reduction of the co-purified amount in yeast expressing Ufe1ΔTM against wt yeast [3] [fold]
B1	103 ± 6		
B2	70 ± 18		
B3	109 ± 14		
B4	56 ± 13		
B5	122 ± 15		
B6	64 ± 17		
B7	67 ± 25		
B8	44 ± 27		
B9	68 ± 30	~5	
B10	59 ± 24	~7	~3
B11	106 ± 7		

From publication PMC5963807, “Assembly-hub function of ER-localized SNARE proteins in biogenesis of tombusvirus replication compartment” (PLoS Pathogens, 2018)
